# According to publication doi:10.1101/586461 (bioRxiv, 2019):
# Columns and labels:
# cryo-electron tomography = molecular target: the molecule itself; experiment: cryo-electron tomography
# negative stain EM = molecular target: the molecule itself; experiment: negative stain EM
protein,measurement,setting,value
"Drosophila dynamin Shibire (Shi), wild type (natural protein) MDSLITIVNKLQDAFTSLGVHMQLDLPQIAVVGGQSAGKSSVLENFVGKDFLPRGSGIVTRRPLILQLINGVTEYGEFLHIKGKKFSSFDEIRKEIEDETDRVTGSNKGISNIPINLRVYSPHVLNLTLIDLPGLTKVAIGDQPVDIEQQIKQMIFQFIRKETCLILAVTPANTDLANSDALKLAKEVDPQGVRTIGVITKLDLMDEGTDARDILENKLLPLRRGYIGVVNRSQKDIEGRKDIHQALAAERKFFLSHPSYRHMADRLGTPYLQRVLNQQLTNHIRDTLPGLRDKLQKQMLTLEKEVEEFKHFQPGDASIKTKAMLQMIQQLQSDFERTIEGSGSALVNTNELSGGAKINRIFHERLRFEIVKMACDEKELRREISFAIRNIHGIRVGLFTPDMAFEAIVKRQIALLKEPVIKCVDLVVQELSVVVRMCTAKMSRYPRLREETERIITTHVRQREHSCKEQILLLIDFELAYMNTNHEDFIGFANAQNKSENANKTGTRQLGNQVIRKGHMVIQNLGIMKGGSRPYWFVLTSESISWYKDEDEKEKKFMLPLDGLKLRDIEQGFMSMSRRVTFALFSPDGRNVYKDYKQLELSCETVEDVESWKASFLRAGVYPEKQETQENGDESASEESSSDPQLERQVETIRNLVDSYMKIVTKTTRDMVPKAIMMLIINNAKDFINGELLAHLYASGDQAQMMEESAESATRREEMLRMYRACKDALQIIGDVSMATVSSPLPPPVKNDWLPSGLDNPRLSPPSPGGVRGKPGPPAQSSLGGRNPPLPPSTGRPAPAIPNRPGGGAPPLPGGRPGGSLPPPMLPSRVSGAVGGAIVQQSGANRYVPESMRGQVNQAVGQAAINELSNAFSSRFK",binding result,cryo-electron tomography,binds
non-tagged human dynamin 1 (hDyn1) (natural protein) MGNRGMEDLIPLVNRLQDAFSAIGQNADLDLPQIAVVGGQSAGKSSVLENFVGRDFLPRGSGIVTRRPLVLQLVNATTEYAEFLHCKGKKFTDFEEVRLEIEAETDRVTGTNKGISPVPINLRVYSPHVLNLTLVDLPGMTKVPVGDQPPDIEFQIRDMLMQFVTKENCLILAVSPANSDLANSDALKVAKEVDPQGQRTIGVITKLDLMDEGTDARDVLENKLLPLRRGYIGVVNRSQKDIDGKKDITAALAAERKFFLSHPSYRHLADRMGTPYLQKVLNQQLTNHIRDTLPGLRNKLQSQLLSIEKEVEEYKNFRPDDPARKTKALLQMVQQFAVDFEKRIEGSGDQIDTYELSGGARINRIFHERFPFELVKMEFDEKELRREISYAIKNIHGIRTGLFTPDMAFETIVKKQVKKIREPCLKCVDMVISELISTVRQCTKKLQQYPRLREEMERIVTTHIREREGRTKEQVMLLIDIELAYMNTNHEDFIGFANAQQRSNQMNKKKTSGNQDEILVIRKGWLTINNIGIMKGGSKEYWFVLTAENLSWYKDDEEKEKKYMLSVDNLKLRDVEKGFMSSKHIFALFNTEQRNVYKDYRQLELACETQEEVDSWKASFLRAGVYPERVGDKEKASETEENGSDSFMHSMDPQLERQVETIRNLVDSYMAIVNKTVRDLMPKTIMHLMINNTKEFIFSELLANLYSCGDQNTLMEESAEQAQRRDEMLRMYHALKEALSIIGDINTTTVSTPMPPPVDDSWLQVQSVPAGRRSPTSSPTPQRRAPAVPPARPGSRGPAPGPPPAGSALGGAPPVPSRPGASPDPFGPPPQVPSRPNRAPPGVPSRSGQASPSRPESPRPPFDL,binding result,negative stain EM,binds
N-terminal His-tagged human dynamin 1 (hDyn1) (natural protein) MGNRGMEDLIPLVNRLQDAFSAIGQNADLDLPQIAVVGGQSAGKSSVLENFVGRDFLPRGSGIVTRRPLVLQLVNATTEYAEFLHCKGKKFTDFEEVRLEIEAETDRVTGTNKGISPVPINLRVYSPHVLNLTLVDLPGMTKVPVGDQPPDIEFQIRDMLMQFVTKENCLILAVSPANSDLANSDALKVAKEVDPQGQRTIGVITKLDLMDEGTDARDVLENKLLPLRRGYIGVVNRSQKDIDGKKDITAALAAERKFFLSHPSYRHLADRMGTPYLQKVLNQQLTNHIRDTLPGLRNKLQSQLLSIEKEVEEYKNFRPDDPARKTKALLQMVQQFAVDFEKRIEGSGDQIDTYELSGGARINRIFHERFPFELVKMEFDEKELRREISYAIKNIHGIRTGLFTPDMAFETIVKKQVKKIREPCLKCVDMVISELISTVRQCTKKLQQYPRLREEMERIVTTHIREREGRTKEQVMLLIDIELAYMNTNHEDFIGFANAQQRSNQMNKKKTSGNQDEILVIRKGWLTINNIGIMKGGSKEYWFVLTAENLSWYKDDEEKEKKYMLSVDNLKLRDVEKGFMSSKHIFALFNTEQRNVYKDYRQLELACETQEEVDSWKASFLRAGVYPERVGDKEKASETEENGSDSFMHSMDPQLERQVETIRNLVDSYMAIVNKTVRDLMPKTIMHLMINNTKEFIFSELLANLYSCGDQNTLMEESAEQAQRRDEMLRMYHALKEALSIIGDINTTTVSTPMPPPVDDSWLQVQSVPAGRRSPTSSPTPQRRAPAVPPARPGSRGPAPGPPPAGSALGGAPPVPSRPGASPDPFGPPPQVPSRPNRAPPGVPSRSGQASPSRPESPRPPFDL,binding result,cryo-electron tomography,binds
